The values that follow come from PMC4456219.

For experiment [1], the target named is MBP-Vps24-2-ssrA (Saccharomyces cerevisiae) (UniProt P36095).
The target of experiment [2] is mixed Vps4 hexamer of full-length Vps4^CF and Vps4^(CF 206C ΔMIT) (Saccharomyces cerevisiae) (UniProt P52917). The experiment in a line: cross-linking.

Regarding “ClpX (from UniProt P0A6H1 1-424) (enzyme)”, the HDX-MS: unfolded proportion of the MBP peptide 347-360 at 10, 30 and 60 s in experiment [1] was determined as 30%.

B1: Vps24-2^92C (I92C single cysteine mutant of Vps24-2) (protein)
chain: MDYIKKAIWGPDPKEQQRRIRSVLRKNGRNIEKSLRELTVLQNKTQQLIKKSAKKNDVRTVRLYAKELYQINKQYDRMYTSRAQLDSVRMKCDEAIRMNTLSNQMADSAGLMREVNSLVRLPQLRNTMIELEKELMKSGIISEMVDDTMESVGDVGEEMDEAVDEEVNKIVEQYTNEKFSQLQSTPQNLVSNAPIAETAMGIPEPIGAGSEFHGNPDDDLQARLNTLKKQT
modifications: Cys92 activated as a mixed disulfide with DTNB
In turn, B1 came in with a cross-linking efficiency relative to Vps24-2^136C in experiment [2] of 60%.
